This note sets out measurements from article PMC6748613 (mAbs, 2019).

The chains are these.
B1: bH1 Fab variant Y^H33-M^H98-M^H99-R^L30b (Fab, V domains shown)
VH: not shown
VL: DIQMTQSPSSLSASVGDRVTITCRASQDIPRRISGYVAWYQQKPGKAPKLLIYWGSYLYSGVPSRFSGSGSGTDFTLTISSLQPEDFATYYCQQHYTTPPTFGQGTKVEIK
B2: bH1 Fab variant Y^H33-W^H98-D^H99-R^L30b (Fab, V domains shown)
VH: not shown
VL: B1 VL
B3: bH1 Fab variant W^H33-F^H98-G^H99-R^L30b (Fab, V domains shown)
VH: not shown
VL: B1 VL
B4: bH1 Fab variant Y^H33-W^H98-R^H99-R^L30b (Fab, V domains shown)
VH: not shown
VL: B1 VL
B5: bH1 Fab variant W^H33-M^H98-G^H99-R^L30b (Fab, V domains shown)
VH: not shown
VL: B1 VL
B6: bH1 Fab variant W^H33-F^H98-D^H99-R^L30b (Fab, V domains shown)
VH: EVQLVESGGGLVQPGGSLRLSCAASGFNIKDTWIHWVRQAPGKGLEWVARIYPTNGYTRYADSVKGRFTISADTSKNTAYLQMNSLRAEDTAVYYCSRWGGFDFYAMDYWGQGTLVTVSS
VL: B1 VL
B7: bH1 Fab variant W^H33-W^H98-M^H99-R^L30b (Fab, V domains shown)
VH: B6 VH with F102W, D103M
VL: B1 VL
B8: bH1 Fab variant W^H33-W^H98-D^H99-R^L30b (Fab, V domains shown)
VH: B6 VH with F102W
VL: B1 VL
B9: bH1 Fab variant W^H33-M^H98-M^H99-R^L30b (Fab, V domains shown)
VH: B6 VH with F102M, D103M
VL: B1 VL
B10: bH1 Fab variant W^H33-M^H98-D^H99-R^L30b (Fab, V domains shown)
VH: B6 VH with F102M
VL: B1 VL
B11: bH1 Fab variant Y^H33-M^H98-D^H99-R^L30b (Fab, V domains shown)
VH: not shown
VL: B1 VL

Positions count from the first letter of the chain named.

The target in the assay is vascular endothelial growth factor (VEGF)-A, isoform 165 (Homo sapiens, UniProt P15692-4). Briefly: SPR.
Turning to B1, the “ΔΔG_bind against the parental Fab” value was -1.71 kcal/mol.
On to B2, for which the “ΔΔG_bind against the parental Fab” value is -1.88 kcal/mol.
Under B3 stands -1.09 kcal/mol.
Under B4 stands -0.97 kcal/mol; under B5, -1.51 kcal/mol; under B6, -2.04 kcal/mol.
Under B7 stands -2.07 kcal/mol.
As to B8, the “ΔΔG_bind against the parental Fab” value is -2.57 kcal/mol.
B9: the “ΔΔG_bind against the parental Fab” value is -2.27 kcal/mol.
For the molecule B10, the “ΔΔG_bind against the parental Fab” value is -1.89 kcal/mol.
Under B11 stands -1.58 kcal/mol.
